In assay [1] the target is T1, C1q (human (endogenous in normal human serum), UniProt P02745 23-245; P02746 28-253; P02747 29-245). Nature of the assay: ELISA.
Assay [2] deals with T1, C1q. The experiment in a line: MST.

T1 sequence (P02745 23-245, chain 1 of 3): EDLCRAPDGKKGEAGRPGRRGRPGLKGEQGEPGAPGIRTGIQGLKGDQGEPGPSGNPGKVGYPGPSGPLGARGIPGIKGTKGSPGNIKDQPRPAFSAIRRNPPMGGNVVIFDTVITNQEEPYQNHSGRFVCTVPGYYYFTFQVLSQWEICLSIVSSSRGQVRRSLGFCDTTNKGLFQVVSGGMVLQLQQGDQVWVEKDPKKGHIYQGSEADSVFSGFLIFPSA
T1 sequence (P02746 28-253, chain 2 of 3): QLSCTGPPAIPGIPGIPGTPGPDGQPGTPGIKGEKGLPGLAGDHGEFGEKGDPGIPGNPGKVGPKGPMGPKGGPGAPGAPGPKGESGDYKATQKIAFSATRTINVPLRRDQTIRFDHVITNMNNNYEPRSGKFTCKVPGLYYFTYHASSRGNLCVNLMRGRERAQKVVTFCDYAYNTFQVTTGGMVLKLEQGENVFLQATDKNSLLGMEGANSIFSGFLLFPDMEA
T1 sequence (P02747 29-245, chain 3 of 3): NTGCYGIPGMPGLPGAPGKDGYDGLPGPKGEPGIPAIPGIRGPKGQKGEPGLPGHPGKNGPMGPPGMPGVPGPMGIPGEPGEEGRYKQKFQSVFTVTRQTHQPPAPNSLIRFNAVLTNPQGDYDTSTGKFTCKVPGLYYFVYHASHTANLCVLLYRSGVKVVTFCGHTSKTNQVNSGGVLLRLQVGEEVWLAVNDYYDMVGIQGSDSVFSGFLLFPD

B1: rMASP-1 (enzyme, UniProt P48740 20-699, looked up)
chain: HTVELNNMFGQIQSPGYPDSYPSDSEVTWNITVPDGFRIKLYFMHFNLESSYLCEYDYVKVETEDQVLATFCGRETTDTEQTPGQEVVLSPGSFMSITFRSDFSNEERFTGFDAHYMAVDVDECKEREDEELSCDHYCHNYIGGYYCSCRFGYILHTDNRTCRVECSDNLFTQRTGVITSPDFPNPYPKSSECLYTIELEEGFMVNLQFEDIFDIEDHPEVPCPYDYIKIKVGPKVLGPFCGEKAPEPISTQSHSVLILFHSDNSGENRGWRLSYRAAGNECPELQPPVHGKIEPSQAKYFFKDQVLVSCDTGYKVLKDNVEMDTFQIECLKDGTWSNKIPTCKIVDCRAPGELEHGLITFSTRNNLTTYKSEIKYSCQEPYYKMLNNNTGIYTCSAQGVWMNKVLGRSLPTCLPVCGLPKFSRKLMARIFNGRPAQKGTTPWIAMLSHLNGQPFCGGSLLGSSWIVTAAHCLHQSLDPEDPTLRDSDLLSPSDFKIILGKHWRLRSDENEQHLGVKHTTLHPQYDPNTFENDVALVELLESPVLNAFVMPICLPEGPQQEGAMVIVSGWGKQFLQRFPETLMEIEIPIVDHSTCQKAYAPLKKKVTRDMICAGEKEGGKDACAGDSGGPMVTLNRERGQWYLVGTVSWGDDCGKKDRYGVYSYIHHNKDWIQRVTGVRN
Turning to B1, the binding result with C1q [1] is “binds”.

B2: rMAP-1 (natural protein, UniProt P48740-3 20-380, looked up)
chain: HTVELNNMFGQIQSPGYPDSYPSDSEVTWNITVPDGFRIKLYFMHFNLESSYLCEYDYVKVETEDQVLATFCGRETTDTEQTPGQEVVLSPGSFMSITFRSDFSNEERFTGFDAHYMAVDVDECKEREDEELSCDHYCHNYIGGYYCSCRFGYILHTDNRTCRVECSDNLFTQRTGVITSPDFPNPYPKSSECLYTIELEEGFMVNLQFEDIFDIEDHPEVPCPYDYIKIKVGPKVLGPFCGEKAPEPISTQSHSVLILFHSDNSGENRGWRLSYRAAGNECPELQPPVHGKIEPSQAKYFFKDQVLVSCDTGYKVLKDNVEMDTFQIECLKDGTWSNKIPTCKKNEIDLESELKSEQVTE
As to B2, the binding result with C1q [1] is “binds”.

B3: Zymogen rMASP-3 (enzyme, human, UniProt P48740-2 20-728, looked up)
chain: HTVELNNMFGQIQSPGYPDSYPSDSEVTWNITVPDGFRIKLYFMHFNLESSYLCEYDYVKVETEDQVLATFCGRETTDTEQTPGQEVVLSPGSFMSITFRSDFSNEERFTGFDAHYMAVDVDECKEREDEELSCDHYCHNYIGGYYCSCRFGYILHTDNRTCRVECSDNLFTQRTGVITSPDFPNPYPKSSECLYTIELEEGFMVNLQFEDIFDIEDHPEVPCPYDYIKIKVGPKVLGPFCGEKAPEPISTQSHSVLILFHSDNSGENRGWRLSYRAAGNECPELQPPVHGKIEPSQAKYFFKDQVLVSCDTGYKVLKDNVEMDTFQIECLKDGTWSNKIPTCKIVDCRAPGELEHGLITFSTRNNLTTYKSEIKYSCQEPYYKMLNNNTGIYTCSAQGVWMNKVLGRSLPTCLPECGQPSRSLPSLVKRIIGGRNAEPGLFPWQALIVVEDTSRVPNDKWFGSGALLSASWILTAAHVLRSQRRDTTVIPVSKEHVTVYLGLHDVRDKSGAVNSSAARVVLHPDFNIQNYNHDIALVQLQEPVPLGPHVMPVCLPRLEPEGPAPHMLGLVAGWGISNPNVTVDEIISSGTRTLSDVLQYVKLPVVPHAECKTSYESRSGNYSVTENMFCAGYYEGGKDTCLGDSGGAFVIFDDLSQRWVVQGLVSWGGPEECGSKQVYGVYTKVSNYVDWVWEQMGLPQSVVEPQVER
modifications: RED-tris-NTA dye on the His tag (in the MST only)
The molecule B3 gave a Kd with C1q [2] of 69.6 nM.

For the origin of these results see doi:10.1101/2024.03.15.584944 (bioRxiv, 2024).
